Drawing on patent US20230049752A1 (University of California, published 2023), this text covers FACS fluorescence and FACS signal for 13 molecules.

Substitutions are numbered along the chain they refer to.

Experiment [1] concerns the target human Claudin-6 (CLDN6) (human) (UniProt P56747). As to the kind of experiment: FACS, 0.3 ug Ab, ARK2 cells (2nd Ab only 1351.21). (In flow cytometry, cells or beads pass a laser one at a time.)
Experiment [2] shares this target. Put plainly: FACS, 1.5 ug Ab, ARK2 cells (2nd Ab only 1351.21).
The target is the same in experiment [3]. Put plainly: FACS, 1.5 ug Ab, OVCA429 cells (2nd Ab only 885.77).
Experiment [4] has the same target. As to the kind of experiment: FACS, 0.3 ug Ab, 293T clone expressing human CLDN6 (2nd Ab only 768.07).
For experiment [5] the target is unchanged. Put plainly: FACS, 1.5 ug Ab, 293T clone expressing human CLDN6 (2nd Ab only 768.07).
For experiment [6] the target is unchanged. As to the kind of experiment: FACS, limiting dilution, ARK2 cells.
Experiment [7] shares this target. As to the kind of experiment: FACS, limiting dilution, OV90 cells.
Experiment [8] has the same target. As to the kind of experiment: FACS, limiting dilution, UMUC4 cells.
The target in a further experiment is T1, mouse Claudin-6 (CLDN6) (mouse, UniProt Q9Z262 1-219).
T1 construct: whole, on cells; GFP fusion on engineered HEK293T cells; also called Mouse CLDN6; murine CLDN6
T1 sequence (looked up): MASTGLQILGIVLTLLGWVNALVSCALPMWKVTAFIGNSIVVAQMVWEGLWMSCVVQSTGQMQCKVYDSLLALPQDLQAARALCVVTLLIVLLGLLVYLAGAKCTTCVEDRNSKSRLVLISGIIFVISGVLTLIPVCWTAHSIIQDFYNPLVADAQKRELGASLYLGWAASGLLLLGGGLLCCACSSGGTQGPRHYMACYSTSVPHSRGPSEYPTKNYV
As to the kind of experiment: FACS, 293T clone expressing mouse CLDN6, dose not stated (2nd Ab only 1061.72). The procedure:
Two doses (1.5 μg or 0.3 μg) of the humanized antibodies were tested for binding to either human CLDN6 or murine CLDN6 which proteins were expressed by engineered 293T clones.

B1: AB18-4 (antibody, V domains shown)
VH: QVQLVQSGAEVKKPGASVKVSCKASGYSFTGYNMNWVRQAPGQGLEWMGNIDPYYGGSTYAQKFQGRVTMTVDTSTSTVYMELSSLRSEDTAVYYCARERSGYVFSAMDYWGQGTLVTVSS
VL: DIVMTQSPDSLAVSLGERVTMNCKSSQSVLFSSNQKNYLAWYQQKPGQPPKLLIYWASTRESGVPDRFSGSGSGTDFTLTISSVQAEDVAVYYCHQYLSSRTFGQGTKLEIK
Turning to B1, the FACS fluorescence was determined as 1130 in experiment [1]; 1380 in [2]; 3220 in [3]; 32400 in experiment [4]; 54400 in experiment [5].

B2: AB18-6 (antibody, V domains shown)
VH: B1 VH with V20I, M48I, V68A, M70L, V79A
VL: B1 VL
For the molecule B2, the FACS fluorescence in [1] was determined as 1390; in [2], 1940; in experiment [3], 6750; in [4], 26900; in experiment [5] it was 58500.

B3: AB S2 (antibody, V domains shown)
VH: EVQLLESGGGLVQPGGSMRLSCAASGFTFSNYWMNWVRQAPGKGLEWIAQIRLKSDNYATHYADSVKGRFTISRDDSKRTVYLQMNSLRAEDTGTYYCSDGPPSGSWGQGTLLTVSS
VL: DIQMTQSPSSLSASVGDRVTITCRISENIYSYLAWYQQKPGKAPKLLVYNAKILVEGVPSRFSGSGSGTDFTLTISSLQPEDFGTYYCQHHYTVPWTFGQGTKLEIK
In [6], B3 displayed an FACS signal at 0.32 nM of 608, an FACS signal at 1.6 nM of 956, an FACS signal at 8 nM of 4840 and an FACS signal at 40 nM of 21000. Moreover, the FACS signal at 200 nM in [6] is 83400. In [7], the FACS signal at 0.32 nM came to 537, the FACS signal at 1.6 nM amounted to 1510, the FACS signal at 8 nM is 3950 and the FACS signal at 40 nM amounted to 18100. In addition, the FACS signal at 200 nM in [7] was 53400. In experiment [8], this molecule displayed an FACS signal at 0.32 nM of 505, an FACS signal at 1.6 nM of 746, an FACS signal at 8 nM of 2270 and an FACS signal at 40 nM of 6970. For the same molecule, the FACS signal at 200 nM in [8] was determined as 20000.

B4: AB S3 (antibody, V domains shown)
VH: B3 VH with A59V, A63T, T95I
VL: B3 VL
Regarding B4, in experiment [6], the FACS signal at 0.32 nM was 372, the FACS signal at 1.6 nM turned out to be 933, the FACS signal at 8 nM was 4830 and the FACS signal at 40 nM was 24600. Besides, the FACS signal at 200 nM in experiment [6] turned out to be 83600. In experiment [7], this molecule had an FACS signal at 0.32 nM of 482, an FACS signal at 1.6 nM of 1040, an FACS signal at 8 nM of 4470 and an FACS signal at 40 nM of 19500. Besides, the FACS signal at 200 nM in experiment [7] turned out to be 63100. Further, in experiment [8], the FACS signal at 0.32 nM was 533, the FACS signal at 1.6 nM is 647, the FACS signal at 8 nM stood at 1980 and the FACS signal at 40 nM came out at 7780. In [8], the FACS signal at 200 nM turned out to be 20800 and the FACS signal at 1000 nM was 45300.

B5: AB18-chim (antibody, V domains shown)
VH: QVQLKQSGPELEKPGASVKISCKASGYSFTGYNMNWVKQSNGKSLEWIGNIDPYYGGSTYNQKFTGKATLTVDKSSSTAYMQLKSLTSEDSAVYYCARERSGYVFSAMDYWGQGTSVTVSS
VL: NIMMTQSPSSLAVSAGEKVTMSCKSSQSVLFSSNQKNYLAWYQQKPGQSPRLLIYWASTRESGVPDRFTGSGSGTDFTLTISNVQAEDLAVYYCHQYLSSRTFGAGTKLELK
For the molecule B5, the FACS fluorescence in experiment [1] came out at 3440; in experiment [2], 9150; in [3], 25500; in [4] it was 73800; in [5], 135000.

B6: AB4-6 (antibody, V domains shown)
VH: QVQLVQSGAEVKKPGASVKMSCKASGYTFTSYTMHWIRQAPGQGLEWIGYINPSSTYTHYAQKFQGRATLTADKSTSTAYMELSSLRSEDTAVYYCSRGELGGFAYWGQGTLVTVSS
VL: DVVMTQSPLSLPVTLGQPASISCRSSQSLVHSDGNTYLNWYQQRPGQSPRLLIYKVSNRFSGVPDRFSGSGSGTDFTLKISRVEAEDVGVYYCSQSTHVPYTFGQGTKLEIK
notes: humanized
Consider B6, for which the FACS fluorescence in experiment [1] came out at 3300; in experiment [2] it was 9840; in experiment [4], 10800; in experiment [5], 29200; with mouse Claudin-6 (CLDN6) it was 14200.

B7: AB4-11 (antibody, V domains shown)
VH: B6 VH with A61I, Q62K, Q65K, G66D
VL: B6 VL
notes: humanized
Take B7: the FACS fluorescence worked out at 6390 in experiment [1]; 9170 in experiment [2]; 37800 in experiment [4]; 61200 in experiment [5]; 1230 in the experiment with mouse Claudin-6 (CLDN6).

B8: AB4-9 (antibody, V domains shown)
VH: B6 VH with A61I, Q62K, Q65K, G66D, K74T
VL: B6 VL
notes: humanized
As to B8, the FACS fluorescence stood at 3060 in [1]; 7790 in experiment [2]; 37200 in experiment [4]; 56900 in experiment [5]; 1780 with mouse Claudin-6 (CLDN6).

B9: AB4-12 (antibody, V domains shown)
VH: B6 VH with L45Q, A61I, Q62K, Q65K, G66D
VL: B6 VL
notes: humanized
Consider B9, for which the FACS fluorescence in experiment [1] came out at 9690; in experiment [2], 24200; in experiment [4] it was 71100; in [5] it was 86200; with mouse Claudin-6 (CLDN6) it was 1130.

B10: AB4-10 (antibody, V domains shown)
VH: B6 VH with L45Q, A61I, Q62K, Q65K, G66D, K74T
VL: B6 VL
notes: humanized
In the case of B10, the FACS fluorescence was 7210 in experiment [1]; 20200 in experiment [2]; 50800 in experiment [4]; 77200 in experiment [5]; 2650 with mouse Claudin-6 (CLDN6).

B11: AB4-7 (antibody, V domains shown)
VH: B6 VH with L45Q
VL: B6 VL
notes: humanized
As for B11, the FACS fluorescence in experiment [1] was determined as 2770; in experiment [2], 7560; in experiment [4], 19200; in [5], 33300; in the experiment with mouse Claudin-6 (CLDN6) it was 6640.

B12: AB4-8 (antibody, V domains shown)
VH: QVQLVQSGAEVKKPGASVKVSCKASGYTFTSYTMHWVRQAPGQGLEWMGYINPSSTYTHYIKKFKDRVTMTADTSTSTVYMELSSLRSEDTAVYYCSRGELGGFAYWGQGTLVTVSS
VL: B6 VL
notes: humanized
For B12, the FACS fluorescence in experiment [1] stood at 3120; in experiment [2] it was 7310; in experiment [4], 49300; in experiment [5], 77600; in the experiment with mouse Claudin-6 (CLDN6), 4700.

B13: AB1-11 (antibody, V domains shown)
VH: QVQLVQSGAEVKKPGASVKMSCKASGYTFTTYTMHWVRQAPGQGLEWIGFINPSSGYTDYAQKFQGRVTLTADKSTSTVYMELSSLRSEDTAVYYCANGDYYVAYWGQGTLVTVSS
VL: DIQLTQSPSSLSASVGDRVTMTCTASSSVSSTYFHWYQQKPGKAPKLWIYSTSNLASGVPSRFSGSGSGTDYTLTISSMQPEDAATYYCHQYHRSPLTFGQGTKLEIK
notes: humanized; also called humanized AB1-11; HU-11
For the molecule B13, the FACS signal at 0.32 nM in experiment [6] came to 377; in experiment [7], 452; in experiment [8], 618. Also, the FACS signal at 1.6 nM is 639 in experiment [6], 753 in experiment [7] and 839 in experiment [8]. For the same molecule, the FACS signal at 8 nM in [6] is 2290; in [7], 2150; in experiment [8], 1610. For the same molecule, the FACS signal at 40 nM worked out at 3460 in [6], 7820 in experiment [7] and 4160 in experiment [8]. The FACS signal at 200 nM in [6] was found to be 16400; in [7], 32500; in experiment [8], 25700. Further, the FACS signal at 1000 nM in experiment [6] worked out at 50500; in experiment [7], 72100. Moreover, the FACS fluorescence in [1] is 53900; in experiment [2], 97700; in [4] it was 64900; in [5] it was 113000; with mouse Claudin-6 (CLDN6), 101000.
